Data reported in patent publication US20160046944, “APTAMER TO IL-17 AND USE THEREOF” (THE UNIVERSITY OF TOKYO, published 2016).
Positions count from the first letter of the chain named.

T1: IL-17 (Homo sapiens, UniProt Q16552 Q16552:24-155)
T1 sequence: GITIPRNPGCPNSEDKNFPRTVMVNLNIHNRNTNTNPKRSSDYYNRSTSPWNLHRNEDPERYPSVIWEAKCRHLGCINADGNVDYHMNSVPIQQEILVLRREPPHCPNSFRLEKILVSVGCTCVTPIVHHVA

T2: IL-17 (IL-17A) (Homo sapiens, UniProt Q16552 Q16552:24-155)
T2 sequence: T1 sequence

B1: aptamer No. 17 (mixed)
mixed: GGGGUAGCCGGAGGAGTCAGTAAUCGGUACCCC
modifications: 2'-OMe (M), 2'-F (F), PS (S) as marked; uppercase DNA [2'-OMe: 1-5,8,9,11,14,15,22,24-27,29; 2'-F: 12,18,19,28; PS: 7]
B2: aptamer No. 18 (mixed)
mixed: B1 mixed
modifications: 2'-OMe (M), 2'-F (F), PS (S) as marked; uppercase DNA; (NI) printed, likely (M) [2'-OMe: 1-5,8,9,11,14,15,24-27,29 (26 printed NI, likely M); 2'-F: 12,18,19,28; PS: 7]
B3: aptamer No. 5 (mixed)
mixed: B1 mixed
modifications: 2'-OMe (M), 2'-F (F), PS (S) as marked; uppercase DNA; SEQ ID NO:2 [1,2,3,4,5,6,7,8,9,11,12,14,15,18,19,22,23,24,25,26,27,28]
B4: aptamer No. 19 (mixed)
mixed: GGGUAGCCGGAGGAGTCAGTAAUCGGUACCC
modifications: 2'-OMe (M), 2'-F (F), PS (S) as marked; uppercase DNA [2'-OMe: 1-4,7,8,10,13,14,21-26,28; 2'-F: 17,18,27; PS: 6]
B5: aptamer No. 42 (mixed)
mixed: B4 mixed with U27T
modifications: g(M)g(M)g(M)u(M)Agc(M)c(M)Gg(M)agg(M)a(M)gTc(F)agTaAu(M)c(M)g(M)g(M)Ta(M)c(M)c(M)c(M)
B6: aptamer No. 25 (mixed)
mixed: B4 mixed with U27T
modifications: 2'-OMe (M), 2'-F (F) as marked; uppercase DNA [2'-OMe: 1-4,7,8,10,13,14,21,23-26,29-31; 2'-F: 17]
B7: aptamer No. 67 (mixed)
mixed: B4 mixed
modifications: 2'-OMe (M), 2'-F (F), PS (S) as marked; uppercase DNA [2'-OMe: 1-5,7,8,10,13,14,17,21-31; 2'-F: 11,18; PS: 6,15,19]
B8: aptamer No. 46 (mixed)
mixed: B4 mixed
modifications: g(M)g(M)g(M)u(M)Ag(S)c(M)c(M)Gg(M)Agg(M)a(M)gTc(F)agTaau(M)c(M)g(M)g(M)u(F)a(M)CCC
B9: aptamer No. 28 (mixed)
mixed: B4 mixed with U27T
modifications: g(M)g(M)g(M)u(M)Agc(M)c(M)Gg(M)Agg(M)a(M)gTc(F)agTaau(M)c(M)g(M)g(M)Ta(M)c(M)c(M)c(M)
B10: aptamer No. 55 (mixed)
mixed: B4 mixed with A21G
modifications: 2'-OMe (M), 2'-F (F), PS (S) as marked; uppercase DNA [2'-OMe: 1,2,3,4,7,8,10,13,14,23,24,25,26,28; 2'-F: 11,17,18,27; PS: 6]
B11: aptamer No. 37 (mixed)
mixed: B4 mixed with U27T
modifications: g(M)g(M)g(M)u(M)Agc(M)c(M)Gg(M)Agg(M)a(M)gTc(F)agTaAu(M)c(M)g(M)g(M)Ta(M)c(M)c(M)c(M) (one (M) misprinted as (NI))
B12: aptamer No. 49 (mixed)
mixed: B4 mixed
modifications: g(M)g(M)g(M)u(M)Agc(M)c(M)Gg(M)Agg(M)a(M)gTc(F)agTaau(M)c(M)g(M)g(M)u(F)a(M)CCC (one (M) misprinted as (PI))
B13: aptamer No. 40 (mixed)
mixed: B4 mixed with U27T
modifications: g(M)g(M)g(M)u(M)Agc(M)c(M)Gg(M)Agg(M)a(M)gTc(F)AgTa(M)au(M)c(M)g(M)g(M)Ta(M)c(M)c(M)c(M)
B14: aptamer No. 43 (mixed)
mixed: B4 mixed with U27T
modifications: g(M)g(M)g(M)u(M)Agc(M)c(M)Gg(M)agg(M)a(M)gTc(F)agTa(M)au(M)c(M)g(M)g(M)Ta(M)c(M)c(M)c(M)
B15: aptamer No. 2 (mixed)
RNA: B4 mixed with T16U, T20U
modifications: 2'-OMe (M), 2'-F (F), PS (S) as marked; uppercase DNA [2'-OMe at 1-3,10; 2'-F at 4,7,8,16,17,20,23,24,27; PS at 6; DNA at 9,29-31]
B16: aptamer No. 47 (mixed)
mixed: B4 mixed
modifications: g(M)g(M)g(M)u(M)Agc(M)c(M)Gg(M)a(F)gg(M)a(M)gTc(F)a(F)gTaau(M)c(M)g(M)g(M)u(F)a(M)CCC
B17: aptamer No. 44 (mixed)
mixed: B4 mixed with U27T
modifications: g(M)g(M)g(M)u(M)Agc(M)c(M)Gg(M)agg(M)a(M)gTc(F)AgTa(M)au(M)c(M)g(M)g(M)Ta(M)c(M)c(M)c(M)
B18: aptamer No. 31 (mixed)
mixed: B4 mixed with U27T
modifications: g(M)g(M)g(M)u(M)Ag(S)c(M)c(M)Gg(M)Agg(M)a(M)gTc(F)agTaau(M)c(M)g(M)g(M)TAc(M)c(M)c(M)
B19: aptamer No. 38 (mixed)
mixed: B4 mixed with U27T
modifications: g(M)g(M)g(M)u(M)Agc(M)c(M)Gg(M)Agg(M)a(M)gTc(F)agTa(M)au(M)c(M)g(M)g(M)Ta(M)c(M)c(M)c(M)

Legend:
Settings in all cases: chain copies: 2
IL-17 [1] = biological target: T1, IL-17; assay: cell_activity; NIH3T3 IL-6 release
Method: (§1) First, human IL-17 and the aptamer produced in Example 1-1 were pre-incubated at 37° C. for 30 min, and added to NIH3T3 cell (ATCC, CRL1658) together with mouse TNFα (2 ng/mL). Then, after incubation for 24 hr, the culture supernatant was collected, and the amount of IL-6 was measured by BD Cytometric Bead Array (BD Biosciences). The IL-17 inhibitory action of each aptamer was determined from the amount of IL-6. For comparison with the aptamer of the present invention, a conventionally-known aptamer (aptamer No. 50) against IL-17 was used.

IL-17 [2] = biological target: T1, IL-17; assay: SPR; IL-17R-Fc on chip
Method: Whether aptamers shown by aptamer Nos. 1-49 inhibit the binding of IL-17 and IL-17 receptor was evaluated by the surface plasmon resonance method.
For the measurement, BIAcore2000 manufactured by BIAcore was used. […] As an analyte, IL-17 (100 or 150 nM) and an aptamer (50 or 100 nM) shown by aptamer No. 1-49 were mixed, maintained for 15 min and after that the mixture was flown.

IL-17 (IL-17A) = biological target: T2, IL-17 (IL-17A); assay: cell_activity; IL-6 release, NIH3T3
Method: as §1

IL-17 [3] = biological target: T1, IL-17; assay: cell_activity; NIH3T3 IL-6 release; remark: listed apart in the source
Method: First, human IL-17 and the aptamer produced in Example 1-2 were pre-incubated at 37° C. for 30 min, and added to NIH3T3 cell (ATCC, CRL1658) together with mouse TNFα (2 ng/mL). Then, after incubation for 24 hr, the culture supernatant was collected, and the production amount of IL-6 was measured by ELISA method described below. The IL-17 inhibitory action of each aptamer was determined from the production amount of IL-6. For comparison with the aptamer of the present invention, a conventionally-known aptamer (aptamer No. 50) against IL-17 was used.
ELISA method for verifying IL-17 inhibitory action of aptamer: A microtiter plate for ELISA was coated with rat anti-mouse IL-6 antibody (BD Biosciences, 2 μg/mL; 100 μL/well) diluted with PBS, and incubated at 4° C. overnight. The next day, the microtiter plate was washed 3 times with PBS/0.05% Tween 20, and applied blocking with PBS/1% BSA (200 μL/well) at room temperature for 2 hr. Then, the plate was washed 3 times with PBS/0.05% Tween 20. Recombinant mouse IL-6 (BD Biosciences; 100 μL/well) serially diluted with PBS/1% BSA/0.05% Tween 20 or culture supernatants (100 μL/well) were added to the plate. After incubation at room temperature for 2 hr, the plate was washed 3 times with PBS/0.05% Tween 20. Then, 100 μL/well of biotin conjugated rat anti-mouse IL-6 antibody (BD Biosciences) was added to the plate at final dilution of 1/500, and the mixture was reacted at room temperature for 1 hr. After washing 3 times with PBS/0.05% Tween 20, 100 μL/well of alkaline phosphatase conjugated streptavidin was added at final dilution of 1/1000. After 30 min at room temperature, the plate was again washed 4 times with PBS/0.05% Tween 20, and a substrate (1-Step PNPP; Thermo Fisher Scientific Inc; 100 μL/well) was added. After 15 min, aqueous sodium hydroxide solution (2N: 50 μL/well) was added to stop the reaction, and the plate was read on a microtiter reader (Bio-Rad) by using a 405 nm filter.

IL-17 [4] = biological target: T1, IL-17; assay: SPR; IL-17 150 nM, aptamer 12.5 or 50 nM
Method: Whether the synthesized aptamers inhibit the binding of IL-17 and IL-17 receptor was evaluated by the surface plasmon resonance method.
For the measurement, BIAcore T100 manufactured by GE Healthcare Bio Sciences was used. […] As an analyte, IL-17 (150 nM) and each aptamer (12.5 or 50 nM) shown by Table 3 were mixed, maintained for 15 min and after that the mixture was flown.

Binder	IC50 (IL-17 [1]) [nM]	binding signal (IL-17 [2])	IC50 (IL-17 (IL-17A)) [nM]	other results
B1	0.3	4.21 % IL-17/IL-17R binding remaining	–	–
B2	0.15	13.6 % IL-17/IL-17R binding remaining	–	–
B3	0.13	32.3 % IL-17/IL-17R binding remaining	–	–
B4	2.78	8.46 % IL-17/IL-17R binding remaining	–	–
B5	–	–	0.51	–
B6	1.64	11.7 % IL-17/IL-17R binding remaining	–	–
B7	–	–	–	IC50 (IL-17 [3]): 5.95 nM
B8	–	–	1.13	–
B9	–	–	2.11	–
B10	–	–	–	binding signal (IL-17 [4]): 19 % IL-17/IL-17R binding remaining; IC50 (IL-17 [3]): 0.11 nM
B11	–	–	1.64	–
B12	–	–	0.65	–
B13	–	–	3.75	–
B14	–	–	0.49	–
B15	0.68	32 % IL-17/IL-17R binding remaining	–	–
B16	–	–	0.59	–
B17	–	–	1.83	–
GGGUAGCCGGAGGAGTCAGTAAUCGGTACCC (mixed, g(M)g(M)g(M)u(M)Agc(M)c(M)gg(M)Agg(M)a(M)gTc(F)agTa(M)a(M)u(M)c(M)g(M)g(M)TACCC) [aptamer No. 32]	–	–	4.62	–
B18	–	–	0.3	–
B19	–	–	0.31	–
